Test results from publication PMC4284226.

Target: TRPM8-mTurquoise2 (human) (UniProt Q7Z2W7)
Test: FRET or BRET

Chain of UniProt Q7Z2W7 (Q7Z2W7 2-1104): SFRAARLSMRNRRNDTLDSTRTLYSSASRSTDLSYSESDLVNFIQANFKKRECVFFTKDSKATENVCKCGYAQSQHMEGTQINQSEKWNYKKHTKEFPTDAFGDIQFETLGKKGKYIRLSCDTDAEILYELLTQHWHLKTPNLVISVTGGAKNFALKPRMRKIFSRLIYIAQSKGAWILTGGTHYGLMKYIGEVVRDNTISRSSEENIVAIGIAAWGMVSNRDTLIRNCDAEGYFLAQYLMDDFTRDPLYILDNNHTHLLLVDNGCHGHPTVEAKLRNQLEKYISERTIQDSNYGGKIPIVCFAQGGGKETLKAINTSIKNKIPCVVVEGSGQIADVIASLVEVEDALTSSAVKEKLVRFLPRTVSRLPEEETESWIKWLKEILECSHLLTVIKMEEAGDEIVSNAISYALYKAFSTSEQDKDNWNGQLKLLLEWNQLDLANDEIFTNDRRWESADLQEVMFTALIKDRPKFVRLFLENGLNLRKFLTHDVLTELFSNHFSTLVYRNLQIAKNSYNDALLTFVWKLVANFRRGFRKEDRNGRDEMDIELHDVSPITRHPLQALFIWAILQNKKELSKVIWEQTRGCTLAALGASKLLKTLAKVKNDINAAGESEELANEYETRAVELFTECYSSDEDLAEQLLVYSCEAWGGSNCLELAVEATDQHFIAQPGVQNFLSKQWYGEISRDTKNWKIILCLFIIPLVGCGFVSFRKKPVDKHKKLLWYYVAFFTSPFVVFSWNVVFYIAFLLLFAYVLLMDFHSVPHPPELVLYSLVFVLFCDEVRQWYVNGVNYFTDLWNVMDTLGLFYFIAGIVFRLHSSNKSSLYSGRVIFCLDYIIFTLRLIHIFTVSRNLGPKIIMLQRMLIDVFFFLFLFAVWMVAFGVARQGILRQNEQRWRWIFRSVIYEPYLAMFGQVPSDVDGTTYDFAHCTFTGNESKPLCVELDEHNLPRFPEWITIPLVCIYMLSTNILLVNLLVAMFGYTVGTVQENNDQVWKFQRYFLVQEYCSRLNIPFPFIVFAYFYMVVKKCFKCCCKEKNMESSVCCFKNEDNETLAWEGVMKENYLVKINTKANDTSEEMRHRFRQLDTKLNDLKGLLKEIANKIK

E FRET: < 1%
Substance: free SYFP2 protein
